Ten sequences from paper PMC7817693 can be followed below.

Several values for one entry are separate records, joined by “and”; a condition that tells them apart may be missing. Identical values can stand only once.

For one series, the target named is p53 (94-393) WT, thermostable deltaN (Homo sapiens) (UniProt P04637). As to the kind of experiment: fluorescence polarization. The note with it: FP at 25 °C, 2.5 nM FAM-dsDNA, 200 or 275 mM NaCl, 20 mM bis-tris propane pH 6.8, 5% glycerol, 0.1 mg/ml BSA, 0.5 mM TCEP, 10 min; mean of n = 2.
p53 (94-393) WT, thermostable deltaN (Homo sapiens), sequence (P04637 94-393, stated change not applied): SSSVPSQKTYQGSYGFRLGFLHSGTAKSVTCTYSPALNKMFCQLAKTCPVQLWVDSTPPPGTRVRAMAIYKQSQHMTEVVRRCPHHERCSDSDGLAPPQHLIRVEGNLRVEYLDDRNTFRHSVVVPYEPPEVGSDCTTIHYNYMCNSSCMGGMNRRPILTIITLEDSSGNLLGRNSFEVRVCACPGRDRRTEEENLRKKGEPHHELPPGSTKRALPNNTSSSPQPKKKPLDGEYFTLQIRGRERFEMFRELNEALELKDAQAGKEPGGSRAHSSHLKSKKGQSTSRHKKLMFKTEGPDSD
Regarding “ATGATGATAGACAAGTCAGGACTTAACTATATGATG (double strand) [MDM2 RE]”, the Kd was 20 nM and 97 nM.

As for “ATGATGATAGGCATGTCCCAACATGCCCATATGATG (double strand) [APBB2 RE]”, the dissociation constant Kd was 10 nM and 40 nM.

Turning to “ATGATGATGAACATGCCCCAGCATGTTGATATGATG (double strand) [p21_8/13]”, the Kd was 33 nM and 99 nM.

Regarding “ATGATGATGAACATGTCCCAACATGTTGATATGATG (double strand) [p21 RE]”, the Kd was 26 nM and 23 nM.

For the sequence “ATGATGATGAACGTGTCCGGACAGGTCGATATGATG (double strand) [NOXA_3/13]”, the dissociation constant (Kd) was 23 nM and 60 nM.

Take “ATGATGATGAGCGTGTCCGGGCAGGTCGATATGATG (double strand) [NOXA RE]”: the Kd is 45 nM and 446 nM.

For the sequence “ATGATGATGGGCAGGTCCGGACTTGTCGATATGATG (double strand) [BAX_8/13]”, the dissociation constant (Kd) was 8 nM and 40 nM.

On to “ATGATGATGGGCATGTCTGGGCATGTCTATATGATG (double strand) [3Q05 pdb RE]”, for which the Kd was 6 nM.

The series is the same for the next values; noted with them: inosine (written as G): strand 1 nt 21 (RE position 13); strand 2 nt 21 (opposite RE position 8); FP at 25 °C, 2.5 nM FAM-dsDNA, 200 or 275 mM NaCl, 20 mM bis-tris propane pH 6.8, 5% glycerol, 0.1 mg/ml BSA, 0.5 mM TCEP, 10 min; mean of n = 2.
Take “ATGATGATGGGCAGGCCCGGGCTTGTCGATATGATG (double strand) [BAX_8/13 I/C]”: the dissociation constant (Kd) was 9 nM and 83 nM.

The same series, now with this note: inosine (written as G): strand 2 nt 21 and 11 (opposite RE positions 8 and 18); supplement also prints I at strand 1 nt 21 (RE position 13), Table 1 prints G there; FP at 25 °C, 2.5 nM FAM-dsDNA, 200 or 275 mM NaCl, 20 mM bis-tris propane pH 6.8, 5% glycerol, 0.1 mg/ml BSA, 0.5 mM TCEP, 10 min; mean of n = 2.
On to “ATGATGATAGGCATGCCTAGGCATGCCTATATGATG (double strand) [6FJ5_8/18 I/C]”, for which the equilibrium dissociation constant (Kd) was 8 nM and 58 nM.
